In US20250340902A1, “GENE THERAPY FOR BVES-RELATED DISORDERS” (OHIO STATE INNOVATION FOUNDATION, priority 2022, published 2025):

Legend:
Dysferlin (Mus musculus) = Dysferlin (Mus musculus) (UniProt Q9ESD7); assay: anti-HA co-IP from muscle, MS; CTRL 0
[1] = biological target: Obg-like ATPase 1 (Mus musculus) (UniProt Q9CZ30); assay: anti-HA co-IP from muscle, MS; CTRL 0
Basigin (Mus musculus) = Basigin (Mus musculus) (UniProt P18572); assay: anti-HA co-IP from muscle, MS; CTRL 0
[2] = biological target: C-1-tetrahydrofolate synthase, cytoplasmic (Mus musculus) (UniProt Q922D8); assay: anti-HA co-IP from muscle, MS; CTRL 0
[3] = biological target: Tubulin alpha-1B chain (Mus musculus) (UniProt P05213); assay: anti-HA co-IP from muscle, MS; CTRL 0
[4] = biological target: Plasma membrane calcium-transporting ATPase 1 (Mus musculus) (UniProt G5E829); assay: anti-HA co-IP from muscle, MS; CTRL 0
[5] = biological target: ATP-binding cassette sub-family F member 2 (Mus musculus) (UniProt Q99LE6); assay: anti-HA co-IP from muscle, MS; CTRL 0
[6] = biological target: Alanine--tRNA ligase, cytoplasmic (Mus musculus) (UniProt Q8BGQ7); assay: anti-HA co-IP from muscle, MS; CTRL 0
[7] = biological target: Calcium/calmodulin-dependent protein kinase type II subunit gamma (Mus musculus) (UniProt Q923T9); assay: anti-HA co-IP from muscle, MS; CTRL 0
[8] = biological target: Ribosomal protein S6 kinase alpha-2 (Mus musculus) (UniProt Q9WUT3); assay: anti-HA co-IP from muscle, MS; CTRL 0
[9] = biological target: Chloride channel protein 1 (Mus musculus) (UniProt Q64347); assay: anti-HA co-IP from muscle, MS; CTRL 0
Chain of Chloride channel protein 1 (Mus musculus) (Q64347 whole entry): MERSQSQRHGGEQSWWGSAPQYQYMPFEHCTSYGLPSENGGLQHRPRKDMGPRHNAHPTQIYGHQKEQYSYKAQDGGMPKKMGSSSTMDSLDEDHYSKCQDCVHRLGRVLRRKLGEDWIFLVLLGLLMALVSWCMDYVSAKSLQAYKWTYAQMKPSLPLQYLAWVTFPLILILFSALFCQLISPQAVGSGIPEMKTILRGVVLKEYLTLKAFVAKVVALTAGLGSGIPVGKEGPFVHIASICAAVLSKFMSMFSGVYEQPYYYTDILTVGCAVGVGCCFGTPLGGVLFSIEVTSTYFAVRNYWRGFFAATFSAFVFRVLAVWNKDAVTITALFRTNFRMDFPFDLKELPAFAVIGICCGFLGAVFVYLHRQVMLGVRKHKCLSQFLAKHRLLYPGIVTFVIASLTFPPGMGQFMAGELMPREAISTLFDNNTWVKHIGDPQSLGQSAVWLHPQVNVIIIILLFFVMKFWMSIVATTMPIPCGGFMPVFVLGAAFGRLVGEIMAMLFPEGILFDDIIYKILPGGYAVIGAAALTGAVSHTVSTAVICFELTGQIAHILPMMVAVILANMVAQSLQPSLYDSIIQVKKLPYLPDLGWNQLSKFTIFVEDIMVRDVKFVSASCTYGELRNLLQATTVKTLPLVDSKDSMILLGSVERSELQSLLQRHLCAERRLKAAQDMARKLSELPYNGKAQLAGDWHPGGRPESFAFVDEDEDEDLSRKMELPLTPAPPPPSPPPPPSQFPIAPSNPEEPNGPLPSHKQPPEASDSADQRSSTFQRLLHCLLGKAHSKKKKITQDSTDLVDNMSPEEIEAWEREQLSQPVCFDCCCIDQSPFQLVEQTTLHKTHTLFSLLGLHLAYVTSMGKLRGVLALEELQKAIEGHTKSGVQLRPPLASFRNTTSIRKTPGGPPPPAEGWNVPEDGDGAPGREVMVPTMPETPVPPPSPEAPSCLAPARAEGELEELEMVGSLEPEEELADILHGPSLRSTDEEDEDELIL

[10] = biological target: Solute carrier family 12 member 2 (Mus musculus) (UniProt P55012); assay: anti-HA co-IP from muscle, MS; CTRL 0
Cullin-1 (Mus musculus) = Cullin-1 (Mus musculus) (UniProt Q9WTX6); assay: anti-HA co-IP from muscle, MS; CTRL 0
[11] = biological target: RNA methyltransferase 10 homolog C (Mus musculus) (UniProt Q3UFY8); assay: anti-HA co-IP from muscle, MS; CTRL 0
[12] = biological target: Popeye domain-containing protein 2 (Mus musculus) (UniProt Q9ES82); assay: anti-HA co-IP from muscle, MS; CTRL 0
[13] = biological target: Heterogeneous nuclear ribonucleoprotein L (Mus musculus) (UniProt Q8R081); assay: anti-HA co-IP from muscle, MS; CTRL 0
Chain of Heterogeneous nuclear ribonucleoprotein L (Mus musculus) (Q8R081 whole entry): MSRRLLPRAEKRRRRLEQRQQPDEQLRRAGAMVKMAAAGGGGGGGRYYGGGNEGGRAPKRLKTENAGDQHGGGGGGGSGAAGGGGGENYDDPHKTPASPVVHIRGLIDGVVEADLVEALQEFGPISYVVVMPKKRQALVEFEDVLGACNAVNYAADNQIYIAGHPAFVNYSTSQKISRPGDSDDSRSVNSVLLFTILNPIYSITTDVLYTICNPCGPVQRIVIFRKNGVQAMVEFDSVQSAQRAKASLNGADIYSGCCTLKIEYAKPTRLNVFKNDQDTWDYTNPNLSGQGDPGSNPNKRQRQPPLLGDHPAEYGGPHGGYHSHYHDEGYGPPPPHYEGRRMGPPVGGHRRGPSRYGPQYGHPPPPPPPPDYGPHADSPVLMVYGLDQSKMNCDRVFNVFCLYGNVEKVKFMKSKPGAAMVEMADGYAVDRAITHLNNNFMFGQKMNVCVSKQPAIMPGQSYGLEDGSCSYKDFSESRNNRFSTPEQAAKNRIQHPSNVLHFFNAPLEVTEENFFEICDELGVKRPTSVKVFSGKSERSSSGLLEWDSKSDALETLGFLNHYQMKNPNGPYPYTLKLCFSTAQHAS

[14] = biological target: NADH dehydrogenase [ubiquinone] iron-sulfur protein 3, mitochondrial (Mus musculus) (UniProt Q9DCT2); assay: anti-HA co-IP from muscle, MS; CTRL 0
[15] = biological target: 40S ribosomal protein S27 (Mus musculus) (UniProt Q6ZWU9); assay: anti-HA co-IP from muscle, MS; CTRL 0
[16] = biological target: Anoctamin-5 (Mus musculus) (UniProt Q75UR0); assay: anti-HA co-IP from muscle, MS; CTRL 0
[17] = biological target: Splicing factor 3A subunit 1 (Mus musculus) (UniProt Q8K4Z5); assay: anti-HA co-IP from muscle, MS; CTRL 0
[18] = biological target: Carboxypeptidase N catalytic chain (Mus musculus) (UniProt Q9JJN5); assay: anti-HA co-IP from muscle, MS; CTRL 0
[19] = biological target: Sodium/potassium-transporting ATPase subunit alpha-1 (Mus musculus) (UniProt Q8VDN2); assay: anti-HA co-IP from muscle, MS; CTRL 0
[20] = biological target: Fatty acid-binding protein, adipocyte (Mus musculus) (UniProt P04117); assay: anti-HA co-IP from muscle, MS; CTRL 0
Talin-2 (Mus musculus) = Talin-2 (Mus musculus) (UniProt Q71LX4); assay: anti-HA co-IP from muscle, MS; CTRL 0
[21] = biological target: Endoplasmic reticulum transmembrane helix translocase (Mus musculus) (UniProt Q9EPE9); assay: anti-HA co-IP from muscle, MS; CTRL 0
[22] = biological target: Caveolae-associated protein 1 (Mus musculus) (UniProt O54724); assay: anti-HA co-IP from muscle, MS; CTRL 2
[23] = biological target: Voltage-dependent L-type calcium channel subunit beta-1 (Mus musculus) (UniProt Q8R3Z5); assay: anti-HA co-IP from muscle, MS; CTRL 2
[24] = biological target: T-complex protein 1 subunit beta (Mus musculus) (UniProt P80314); assay: anti-HA co-IP from muscle, MS; CTRL 2
[25] = biological target: PDZ and LIM domain protein 5 (Mus musculus) (UniProt Q8CI51); assay: anti-HA co-IP from muscle, MS; CTRL 2
[26] = biological target: Succinate--CoA ligase [ADP-forming] subunit beta, mitochondrial (Mus musculus) (UniProt Q9Z2I9); assay: anti-HA co-IP from muscle, MS; CTRL 2
[27] = biological target: Poly(rC)-binding protein 2 (Mus musculus) (UniProt Q61990); assay: anti-HA co-IP from muscle, MS; CTRL 2
[28] = biological target: Serine/arginine repetitive matrix protein 2 (Mus musculus) (UniProt Q8BTI8); assay: anti-HA co-IP from muscle, MS; CTRL 2
Chain of Serine/arginine repetitive matrix protein 2 (Mus musculus) (Q8BTI8 whole entry, canonical isoform): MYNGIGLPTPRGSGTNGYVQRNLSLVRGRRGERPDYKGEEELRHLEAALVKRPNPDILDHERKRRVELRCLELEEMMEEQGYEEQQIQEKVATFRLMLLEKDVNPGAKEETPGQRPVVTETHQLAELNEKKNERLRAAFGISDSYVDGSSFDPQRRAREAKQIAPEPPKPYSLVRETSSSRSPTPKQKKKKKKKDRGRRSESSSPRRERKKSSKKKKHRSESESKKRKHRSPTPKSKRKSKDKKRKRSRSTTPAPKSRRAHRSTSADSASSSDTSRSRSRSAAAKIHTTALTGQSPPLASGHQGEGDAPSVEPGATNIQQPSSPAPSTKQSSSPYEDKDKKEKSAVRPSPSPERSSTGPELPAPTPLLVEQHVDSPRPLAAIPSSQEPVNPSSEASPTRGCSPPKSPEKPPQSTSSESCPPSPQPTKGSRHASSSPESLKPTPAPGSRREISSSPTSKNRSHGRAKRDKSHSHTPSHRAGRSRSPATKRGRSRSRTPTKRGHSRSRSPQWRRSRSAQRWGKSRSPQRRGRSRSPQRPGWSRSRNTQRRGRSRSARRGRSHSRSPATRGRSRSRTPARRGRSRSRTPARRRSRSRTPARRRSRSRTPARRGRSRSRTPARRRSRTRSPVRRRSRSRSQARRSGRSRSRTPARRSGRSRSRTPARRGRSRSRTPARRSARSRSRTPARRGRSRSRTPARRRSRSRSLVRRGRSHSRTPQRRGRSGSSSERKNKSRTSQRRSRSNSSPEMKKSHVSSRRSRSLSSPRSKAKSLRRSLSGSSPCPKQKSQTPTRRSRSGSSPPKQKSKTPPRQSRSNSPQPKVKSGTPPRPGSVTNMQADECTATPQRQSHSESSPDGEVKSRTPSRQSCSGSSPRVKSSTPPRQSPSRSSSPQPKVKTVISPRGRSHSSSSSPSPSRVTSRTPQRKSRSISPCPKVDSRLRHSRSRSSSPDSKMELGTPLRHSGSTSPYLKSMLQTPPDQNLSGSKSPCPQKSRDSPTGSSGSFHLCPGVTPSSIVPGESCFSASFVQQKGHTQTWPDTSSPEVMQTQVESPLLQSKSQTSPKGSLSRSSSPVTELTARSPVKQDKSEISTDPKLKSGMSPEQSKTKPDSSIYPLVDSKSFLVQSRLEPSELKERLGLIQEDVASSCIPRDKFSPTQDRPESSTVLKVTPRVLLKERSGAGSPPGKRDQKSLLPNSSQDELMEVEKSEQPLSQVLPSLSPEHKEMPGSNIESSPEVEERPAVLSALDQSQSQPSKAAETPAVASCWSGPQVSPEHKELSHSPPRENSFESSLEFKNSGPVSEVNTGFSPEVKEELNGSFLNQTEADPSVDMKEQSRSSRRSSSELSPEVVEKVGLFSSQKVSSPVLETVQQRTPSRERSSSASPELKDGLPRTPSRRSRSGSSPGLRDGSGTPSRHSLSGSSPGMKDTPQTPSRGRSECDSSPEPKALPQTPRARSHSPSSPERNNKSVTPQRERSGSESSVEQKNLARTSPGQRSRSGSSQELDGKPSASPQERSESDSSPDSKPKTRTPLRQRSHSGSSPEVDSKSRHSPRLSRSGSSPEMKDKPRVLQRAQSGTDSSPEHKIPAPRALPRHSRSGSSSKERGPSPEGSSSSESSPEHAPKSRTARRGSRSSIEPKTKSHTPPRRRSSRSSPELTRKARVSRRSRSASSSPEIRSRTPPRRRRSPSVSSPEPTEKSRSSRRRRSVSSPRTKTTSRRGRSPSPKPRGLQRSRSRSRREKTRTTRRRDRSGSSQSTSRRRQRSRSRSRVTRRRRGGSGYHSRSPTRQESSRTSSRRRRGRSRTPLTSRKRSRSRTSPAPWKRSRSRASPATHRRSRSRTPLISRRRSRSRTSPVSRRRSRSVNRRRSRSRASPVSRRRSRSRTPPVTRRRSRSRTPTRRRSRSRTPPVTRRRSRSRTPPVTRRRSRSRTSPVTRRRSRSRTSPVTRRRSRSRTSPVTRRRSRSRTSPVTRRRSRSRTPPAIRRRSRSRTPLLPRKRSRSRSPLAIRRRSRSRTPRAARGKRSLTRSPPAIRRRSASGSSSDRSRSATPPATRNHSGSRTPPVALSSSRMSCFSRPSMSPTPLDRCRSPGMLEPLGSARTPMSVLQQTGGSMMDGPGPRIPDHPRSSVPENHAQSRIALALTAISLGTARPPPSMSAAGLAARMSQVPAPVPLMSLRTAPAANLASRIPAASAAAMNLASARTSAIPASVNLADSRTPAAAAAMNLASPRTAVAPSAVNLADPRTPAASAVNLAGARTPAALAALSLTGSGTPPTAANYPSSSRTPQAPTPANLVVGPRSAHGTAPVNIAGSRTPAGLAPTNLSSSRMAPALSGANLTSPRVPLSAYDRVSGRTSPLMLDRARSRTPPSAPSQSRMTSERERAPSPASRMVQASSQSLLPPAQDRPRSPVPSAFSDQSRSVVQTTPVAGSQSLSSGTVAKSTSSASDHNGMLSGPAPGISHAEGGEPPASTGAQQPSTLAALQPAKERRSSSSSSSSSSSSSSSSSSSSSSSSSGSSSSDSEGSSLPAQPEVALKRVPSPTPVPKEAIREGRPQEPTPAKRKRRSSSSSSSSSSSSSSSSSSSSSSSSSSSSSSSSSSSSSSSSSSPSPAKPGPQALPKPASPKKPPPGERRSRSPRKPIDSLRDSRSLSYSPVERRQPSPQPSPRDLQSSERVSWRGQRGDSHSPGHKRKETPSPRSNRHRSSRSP

[29] = biological target: Phosphorylase b kinase gamma catalytic chain, skeletal muscle/heart isoform (Mus musculus) (UniProt P07934); assay: anti-HA co-IP from muscle, MS; CTRL 2
[30] = biological target: Very-long-chain enoyl-CoA reductase (Mus musculus) (UniProt Q9CY27); assay: anti-HA co-IP from muscle, MS; CTRL 2
[31] = biological target: Calcium/calmodulin-dependent protein kinase type II subunit alpha (Mus musculus) (UniProt P11798); assay: anti-HA co-IP from muscle, MS; CTRL 2
[32] = biological target: Tripartite motif-containing protein 72 (Mus musculus) (UniProt Q1XH17); assay: anti-HA co-IP from muscle, MS; CTRL 2
[33] = biological target: Trimeric intracellular cation channel type A (Mus musculus) (UniProt Q3TMP8); assay: anti-HA co-IP from muscle, MS; CTRL 2
[34] = biological target: Spectrin beta chain, erythrocytic (Mus musculus) (UniProt P15508); assay: anti-HA co-IP from muscle, MS; CTRL 2

Chain of human BVES fused with 3xHA tag (Q8NE79 other isoform, or with tags, fused parts or gaps limits assumed): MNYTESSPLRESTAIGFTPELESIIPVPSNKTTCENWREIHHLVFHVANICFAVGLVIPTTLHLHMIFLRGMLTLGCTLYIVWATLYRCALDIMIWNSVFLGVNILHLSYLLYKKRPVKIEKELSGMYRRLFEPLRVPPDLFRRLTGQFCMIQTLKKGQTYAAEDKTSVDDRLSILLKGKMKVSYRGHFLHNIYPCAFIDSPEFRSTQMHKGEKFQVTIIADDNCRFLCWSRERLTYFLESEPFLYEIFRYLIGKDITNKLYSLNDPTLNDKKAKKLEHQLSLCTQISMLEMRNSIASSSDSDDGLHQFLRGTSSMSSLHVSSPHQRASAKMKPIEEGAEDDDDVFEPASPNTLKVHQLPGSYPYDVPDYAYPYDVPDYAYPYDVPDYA
Chain of Obg-like ATPase 1 (Mus musculus) (Q9CZ30 whole entry): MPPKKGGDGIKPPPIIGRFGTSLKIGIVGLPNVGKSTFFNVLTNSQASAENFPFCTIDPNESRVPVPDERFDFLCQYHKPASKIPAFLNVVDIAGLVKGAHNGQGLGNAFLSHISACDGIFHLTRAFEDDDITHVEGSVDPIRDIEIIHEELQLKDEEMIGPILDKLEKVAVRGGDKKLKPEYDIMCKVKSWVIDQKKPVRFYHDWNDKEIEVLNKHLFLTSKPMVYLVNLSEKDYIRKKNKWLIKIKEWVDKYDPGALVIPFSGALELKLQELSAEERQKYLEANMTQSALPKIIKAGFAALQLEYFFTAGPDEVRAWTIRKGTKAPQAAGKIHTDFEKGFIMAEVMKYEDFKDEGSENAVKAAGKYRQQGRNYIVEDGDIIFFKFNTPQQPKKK

- AAV9-BVES-HA (IP-MS count) (Dysferlin (Mus musculus)): 12
- AAV9-BVES-HA (IP-MS count) [1]: 2
- AAV9-BVES-HA (IP-MS count) (Basigin (Mus musculus)): 4
- AAV9-BVES-HA (IP-MS count) [2]: 2
- AAV9-BVES-HA (IP-MS count) [3]: 13
- AAV9-BVES-HA (IP-MS count) [4]: 34
- AAV9-BVES-HA (IP-MS count) [5]: 2
- AAV9-BVES-HA (IP-MS count) [6]: 4
- AAV9-BVES-HA (IP-MS count) [7]: 13
- AAV9-BVES-HA (IP-MS count) [8]: 12
- AAV9-BVES-HA (IP-MS count) [9]: 13
- AAV9-BVES-HA (IP-MS count) [10]: 3
- AAV9-BVES-HA (IP-MS count) (Cullin-1 (Mus musculus)): 2
- AAV9-BVES-HA (IP-MS count) [11]: 2
- AAV9-BVES-HA (IP-MS count) [12]: 29
- AAV9-BVES-HA (IP-MS count) [13]: 2
- AAV9-BVES-HA (IP-MS count) [14]: 4
- AAV9-BVES-HA (IP-MS count) [15]: 2
- AAV9-BVES-HA (IP-MS count) [16]: 2
- AAV9-BVES-HA (IP-MS count) [17]: 4
- AAV9-BVES-HA (IP-MS count) [18]: 4
- AAV9-BVES-HA (IP-MS count) [19]: 12
- AAV9-BVES-HA (IP-MS count) [20]: 2
- AAV9-BVES-HA (IP-MS count) (Talin-2 (Mus musculus)): 3
- AAV9-BVES-HA (IP-MS count) [21]: 3
- AAV9-BVES-HA (IP-MS count) [22]: 19
- AAV9-BVES-HA (IP-MS count) [23]: 6
- AAV9-BVES-HA (IP-MS count) [24]: 6
- AAV9-BVES-HA (IP-MS count) [25]: 7
- AAV9-BVES-HA (IP-MS count) [26]: 8
- AAV9-BVES-HA (IP-MS count) [27]: 6
- AAV9-BVES-HA (IP-MS count) [28]: 11
- AAV9-BVES-HA (IP-MS count) [29]: 6
- AAV9-BVES-HA (IP-MS count) [30]: 9
- AAV9-BVES-HA (IP-MS count) [31]: 11
- AAV9-BVES-HA (IP-MS count) [32]: 6
- AAV9-BVES-HA (IP-MS count) [33]: 7
- AAV9-BVES-HA (IP-MS count) [34]: 41
Substance: human BVES fused with 3xHA tag (from UniProt Q8NE79 1-360)
